Measurements as given in US10221225B2, “Peptides and combination of peptides and scaffolds thereof for use in immunotherapy against colorectal carcinoma (CRC) and other cancers” (immatics biotechnologies GmbH, priority 2015, dated 2019).

target: HLA-A*02:01 (Homo sapiens, UniProt P04439, D140Y/D185E/D98H/E176V/E277Q/G131W/G231S/I119V/I121R/I166T/I218V/L300P/L318F/N151K/N90K/P208A/P217A/Q86G/Q94H/R138H/R169H/T345S); assay: MHC binding assay (UV-ligand exchange, beta2m ELISA, peptide exchange yield); conditions: MHC class I binding score; binding to HLA-A*02:01 ranged by peptide exchange yield (UV-ligand exchange, β2m ELISA)
Source text: Candidate peptides for T cell based therapies according to the present invention were further tested for their MHC binding capacity (affinity). The individual peptide-MHC complexes were produced by UV-ligand exchange, where a UV-sensitive peptide is cleaved upon UV-irradiation, and exchanged with the peptide of interest as analyzed. Only peptide candidates that can effectively bind and stabilize the peptide-receptive MHC molecules prevent dissociation of the MHC complexes. To determine the yield of the exchange reaction, an ELISA was performed based on the detection of the light chain (β2m) of stabilized MHC complexes. The assay was performed as generally described in Rodenko et al. (Rodenko et al., 2006).
96 well MAXISorp plates (NUNC) were coated over night with 2 ug/ml streptavidin in PBS at room temperature, washed 4× and blocked for 1 h at 37° C. in 2% BSA containing blocking buffer. Refolded HLA-A*02:01/MLA-001 monomers served as standards, covering the range of 15-500 ng/ml. Peptide-MHC monomers of the UV-exchange reaction were diluted 100 fold in blocking buffer. Samples were incubated for 1 h at 37° C., washed four times, incubated with 2 ug/ml HRP conjugated anti-β2m for 1 h at 37° C., washed again and detected with TMB solution that is stopped with […]. Absorption was measured at 450 nm. Candidate peptides that show a high exchange yield (preferably higher than 50%, most preferred higher than 75%) are generally preferred for a generation and production of antibodies or fragments thereof, and/or T cell receptors or fragments thereof, as they show sufficient avidity to the MHC molecules and prevent dissociation of the MHC complexes.

| Substance | Peptide exchange |
| --- | --- |
| 88 (KLDIKVETV; listed as Homo sapiens) [compound 88] | ″++++″ (≥75% = ++++) |
| 89 (SLIEYEFRV; listed as Homo sapiens) [compound 89] | ″+++″ (≥50 = +++) |
| 90 (GLLKPGLNVVL; listed as Homo sapiens) [compound 90] | ″+++″ (≥50 = +++) |
| 91 (TVDVATPSV; listed as Homo sapiens) [compound 91] | ″+++″ (≥50 = +++) |
| 92 (WIDDTSAFV; listed as Homo sapiens) [compound 92] | ″+++″ (≥50 = +++) |
| 93 (SLQELRLLL; listed as Homo sapiens) [compound 93] | ″++++″ (≥75% = ++++) |
| 94 (KSMDIVLTV; listed as Homo sapiens) [compound 94] | ″+++″ (≥50 = +++) |
| 95 (AILDAHIEV; listed as Homo sapiens) [compound 95] | ″++++″ (≥75% = ++++) |
| 96 (KLYSRLVYV; listed as Homo sapiens) [compound 96] | ″++″ (≥20% = ++) |
| 97 (ALWWGVVTV; listed as Homo sapiens) [compound 97] | ″++″ (≥20% = ++) |
| 98 (AMNGKSFSV; listed as Homo sapiens) [compound 98] | ″++″ (≥20% = ++) |
| 99 (KLLEVDLDTV; listed as Homo sapiens) [compound 99] | ″+++″ (≥50 = +++) |
| 100 (SLDDFLATA; listed as Homo sapiens) [compound 100] | ″+++″ (≥50 = +++) |
| 101 (GLSEGHTFQV; listed as Homo sapiens) [compound 101] | ″+++″ (≥50 = +++) |
| 102 (KILVSLIEV; listed as Homo sapiens) [compound 102] | ″+++″ (≥50 = +++) |
| 103 (FLFGYPKRL; listed as Homo sapiens) [compound 103] | ″++″ (≥20% = ++) |
| 104 (ILLTIKDDTIYL; listed as Homo sapiens) [compound 104] | ″+++″ (≥50 = +++) |
| 105 (YALDLSTFL; listed as Homo sapiens) [compound 105] | ″+++″ (≥50 = +++) |
| 106 (SLISEKILL; listed as Homo sapiens) [compound 106] | ″+++″ (≥50 = +++) |
| 107 (ALLGGGPYML; listed as Homo sapiens) [compound 107] | ″+++″ (≥50 = +++) |
| 108 (SLAELVPGVGGI; listed as Homo sapiens) [compound 108] | ″+++″ (≥50 = +++) |
| 109 (ALDGDQMEL; listed as Homo sapiens) [compound 109] | ″++″ (≥20% = ++) |
| 110 (LLGELPRLLLL; listed as Homo sapiens) [compound 110] | ″+++″ (≥50 = +++) |
| 112 (KLGQVLIYL; listed as Homo sapiens) [compound 112] | ″++″ (≥20% = ++) |
| 113 (ILYDLQQNL; listed as Homo sapiens) [compound 113] | ″++″ (≥20% = ++) |
| 114 (TAVGHALVL; listed as Homo sapiens) [compound 114] | ″+″ (≥10% = +) |
| 115 (SLFDVSHML; listed as Homo sapiens) [compound 115] | ″+++″ (≥50 = +++) |
| 116 (LVYQFVHPI; listed as Homo sapiens) [compound 116] | ″++″ (≥20% = ++) |
| 117 (TLQPVDNSTISL; listed as Homo sapiens) [compound 117] | ″++″ (≥20% = ++) |
| 118 (LLADLKTMV; listed as Homo sapiens) [compound 118] | ″+++″ (≥50 = +++) |

Continued, values first:

| Peptide exchange | Substance |
| --- | --- |
| ″++″ (≥20% = ++) | 119 (ILYQTVTGL; listed as Homo sapiens) [compound 119] |
| ″++″ (≥20% = ++) | 120 (VLYEGVDEV; listed as Homo sapiens) [compound 120] |
| ″+++″ (≥50 = +++) | 121 (SLAPNIISQL; listed as Homo sapiens) [compound 121] |
| ″+++″ (≥50 = +++) | 122 (SLMGMVLKL; listed as Homo sapiens) [compound 122] |
| ″++++″ (≥75% = ++++) | 125 (KLGDFGLLVEL; listed as Homo sapiens) [compound 125] |
| ″+++″ (≥50 = +++) | 126 (TLAKYLMEL; listed as Homo sapiens) [compound 126] |
| ″++″ (≥20% = ++) | 128 (MLDDRAYLV; listed as Homo sapiens) [compound 128] |
| ″+++″ (≥50 = +++) | 129 (VLIDVLKEL; listed as Homo sapiens) [compound 129] |
| ″++″ (≥20% = ++) | 130 (GLGGSQLIDTHL; listed as Homo sapiens) [compound 130] |
| ″++″ (≥20% = ++) | 131 (KLLDVVHPA; listed as Homo sapiens) [compound 131] |
| ″++++″ (≥75% = ++++) | 134 (GVAGGSILKGV; listed as Homo sapiens) [compound 134] |
| ″++″ (≥20% = ++) | 135 (KLQEEIPVL; listed as Homo sapiens) [compound 135] |
| ″+++″ (≥50 = +++) | 137 (QLTEIKPLL; listed as Homo sapiens) [compound 137] |
| ″+++″ (≥50 = +++) | 138 (KQFEGTVEI; listed as Homo sapiens) [compound 138] |
| ″+++″ (≥50 = +++) | 139 (VLLNEILEQV; listed as Homo sapiens) [compound 139] |
| ″+++″ (≥50 = +++) | 140 (LLNEILEQV; listed as Homo sapiens) [compound 140] |
| ″+++″ (≥50 = +++) | 143 (KLSDVWKEL; listed as Homo sapiens) [compound 143] |
| ″+++″ (≥50 = +++) | 144 (LLNDRIWLA; listed as Homo sapiens) [compound 144] |
| ″+++″ (≥50 = +++) | 145 (LLLEVVKQV; listed as Homo sapiens) [compound 145] |
| ″++″ (≥20% = ++) | 146 (ALSDETWGL; listed as Homo sapiens) [compound 146] |
| ″++++″ (≥75% = ++++) | 147 (TLTELRAFL; listed as Homo sapiens) [compound 147] |

| Peptide exchange | Substance |
| --- | --- |
| ″+++″ (≥50 = +++) | 148 (RLLENMTEVV; listed as Homo sapiens) [compound 148] |
| ″+++″ (≥50 = +++) | 149 (YQFDKVGILTL; listed as Homo sapiens) [compound 149] |
| ″+++″ (≥50 = +++) | 151 (SAQGSDVSLTACKV; listed as Homo sapiens) [compound 151] |
| ″++″ (≥20% = ++) | 152 (KLLAVIHEL; listed as Homo sapiens) [compound 152] |
| ″+++″ (≥50 = +++) | 153 (ILFSEDSTKLFV; listed as Homo sapiens) [compound 153] |
| ″+++″ (≥50 = +++) | 154 (KLPSETIFVGC; listed as Homo sapiens) [compound 154] |
| ″+++″ (≥50 = +++) | 155 (RLLGEEVVRV; listed as Homo sapiens) [compound 155] |
| ″++++″ (≥75% = ++++) | 156 (SLMMTIINL; listed as Homo sapiens) [compound 156] |
| ″+++″ (≥50 = +++) | 157 (SLIERDLKL; listed as Homo sapiens) [compound 157] |
| ″+++″ (≥50 = +++) | 158 (GLLDPSVFHV; listed as Homo sapiens) [compound 158] |
| ″++″ (≥20% = ++) | 159 (VLVDDDGIKVV; listed as Homo sapiens) [compound 159] |
| ″+++″ (≥50 = +++) | 160 (KLLEFDQLQL; listed as Homo sapiens) [compound 160] |
| ″+++″ (≥50 = +++) | 161 (FLKNELDNV; listed as Homo sapiens) [compound 161] |
| ″+++″ (≥50 = +++) | 162 (KLMDYIDEL; listed as Homo sapiens) [compound 162] |
| ″+++″ (≥50 = +++) | 163 (RLLHEVQEL; listed as Homo sapiens) [compound 163] |
| ″++++″ (≥75% = ++++) | 164 (KMLDEILLQL; listed as Homo sapiens) [compound 164] |
| ″++++″ (≥75% = ++++) | 165 (RLLDFPEAMVL; listed as Homo sapiens) [compound 165] |
| ″+++″ (≥50 = +++) | 166 (GLLEARGILGL; listed as Homo sapiens) [compound 166] |
| ″+++″ (≥50 = +++) | 167 (SVIDHIHLISV; listed as Homo sapiens) [compound 167] |
| ″+++″ (≥50 = +++) | 168 (GLIRFPLMTI; listed as Homo sapiens) [compound 168] |
